Laboratory results as given in the domain aggregation screens of Martell et al. (2025).

Assay: soluble fraction after stress (log2 fold change); higher = more stays soluble; pooled small domains, quantitative proteomics
Details: stress: 50 degC
Outline: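 Pooled custom libraries of small protein domains were measured in a high-throughput format, with quantitative proteomics as the read-out. Each library was stressed at 50°C. Aggregation propensity is given as the base-two logarithm of the fold change in how much of each protein stays soluble after the stress. Higher values mean a larger share of the protein remains in solution.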

Sequence	soluble fraction (log2)
HMKHVENLSDEKTIQAIQENPYMQYLLGLSKFTEKPVFVPELFVLIRKRLDQDFFNMLTLILAEADG	0.143
HMKHYIDFIAEQLKTLTAIPSPSGYTKNATDYLMKLLQDMGYEPKLSRKGNVFVTLGGDGEPLVLAAHVD	-0.114
HMKIDELKAYLFQSVRVKNPHTQEYDTLKIIELNYYQDKIKAKLKNSDDDYITEMIFESIKHLQNFLG	-0.298
HMKIEEIAYSTFISMLDKGEVSKVELKDNLIYIETKADDKTIYTTGRMEDPDLTNRLIEAGVDFTEIE	-0.317
HMKIELSDNEKIIYDLLSSQHVLLSEIKDKAGLSNKAWDKSTKSLRKLGLIAVEKKDDDIYISKL	-0.0233
HMKIGIYPGTFDPITHGHTDIIRRSLRVFDKVVVAVAPNPSKHPLFTLTERLEMIRIVMKELEHVEVT	0.0231
HMKILVTDDNIRIDKYLTTQTEYSRSTIQKMIESNNILVNNKPTKSNYILRNNDEITIDENFNEE	-0.11
HMKININEASRYELMTIGGLDAGRADMLMQYRQKREISSADELKGINGFASYDTAKLQKSFEISP	-0.0475
HMKIRKAVIPAAGLGTRVLPASKSIPKEMLPIVDKPVIQYIVEEAVKAGITEILIITGRGKGAIEDHFDRS	-0.122
HMKISIDNPSVLLDKLATLFPDTSKNKLRKMLTEGRIYVNDNIEHRAKRELINGDTVKILDKTTSKE	0.0915
HMKITAPLPGTITEIKVKVGDTVKNGDTVVVLEAMKMQNNIEAESNGTVTAIFVNKGDTVMEGDALMTI	0.14
HMKITTKNYFKAIAEVGVENLPAALKKSHDLIEERTSKGADWSVYEHDAEVRRVFDLTFEKLFEFIDQ	-0.363
HMKKAITMGDIITVKELSEKIGIQVAEIIKKLMGLGILATINKELDYDTANVIASEFHIELERK	-0.00712
HMKKASLSTVEKKLMKQNYSNDTMENRLARVESYMFGTVFSSDDTQTRIDRISSAYNAQKSS	0.142
HMKKDLATYAYEHIKQMVIDRELMPGERIQQEVLARELGISRTPLVTALNRLASENLVELEANKGFSVRRF	-0.0386
HMKKEETEAEELEEKFTSAQIKQAYGILNDPRYKQGNYSGAVNVINKIAPGLADHPDVKNALKRANEEL	0.0375
HMKKGRIGSIIQYVREHPGVSSSEIITGLGLDISPATIRRDLTLLVAENKLSVEGQNKGTKYFVSPTYDMF	-0.323
HMKKIDVEVVRSQLIAWMADNGKSQAEVSKSMGISASALSMFIKGTYTGDNEQIGRKAAALMDLVHRQSA	0.0121
HMKKILITGNSGYIGSHLSKMLENDYEVHGLDIRQPQHPVAKFYEQDINRPINIEEEYDAVIHLAALV	-0.196
HMKKILLGDVNLDGKVDVNDVTLLQRYIAGETEVITSKDALTATNFNKDGNIDVLDVTDIQTFIANSE	0.0836
HMKKLTNKQIIFFAEKLAHHSDFASKYSKVGESYEEFAIRLEKELNTPQKVEFYSSYLEKVGFK	-2.14
HMKKPKTVLSEEQKEFIINQAQDGVSAYDIARILFPSVNVTNLSKEVIDVAEFIRDTDIKLLADSE	0.0694
HMKKPRKTSRKSIENAAIFYLQRFSSSIENLRRVLMRRVYRSAQYHNTKPEEDAKIVDSIIYRLIETGVL	-0.0617
HMKKSRLHSVLEEIPGIGEKRRKILIKHFGTVEAIKKSSLEELARIKGMNRRAAQNVLEYLK	-0.0583
HMKKVIKIEENVSLQKLAALMSLKVTDVLMRLLSMGMSGVNINSTIDADTAKILASEFGWTVED	-0.743
HMKKVKVPNVVGMSLKEARDALSAVNIAVNQVAGSVEDKSVVTEQSLKAGDEVDEGSSLNLTTEYK	-0.156
HMKKYLTETEAAAYLNMPVEEIKAAITKGEIEQYVKTSSGYTISVEELDKFFGQKAYDTMTSNNS	0.174
HMKLASIGDNIHTLRKNKGLTQSQLAGKLGVNVDTISNYEKGVSTPDFDIVEKLVNIFNVDAHSLLFK	0.127
